# Test results: patent US20240116985A1 (published 2024)
# Starred links: 1 amine or outer side, 2 acyl side, 3 side chain; linkers in the order of their positions; H or OH if unused. Positions of bridges follow the written chain, without caps; N, C: chain ends. Non-standard residues stand in square brackets, D forms with d. Primed or numbered codes have the meaning given here. *: point of attachment. PyrS2″ = (S)-3-amino-1-((pent-4-en-1-yloxy)carbonyl)pyrrolidine-3-carboxylic acid (stapling residue), C=CCCCOC(=O)N1CC[C@@](N[*:1])(C(=O)[*:2])C1; B5(4) = 2,2-bis(4-pentenyl)glycine = 2-amino-2-(pent-4-en-1-yl)hept-6-enoic acid (stitching residue), C=CCCCC(CCCC=C)(N[*:1])C(=O)[*:2]; B5(3) = 2,2-bis(4-pentenyl)glycine (stitching residue), C=CCCCC(CCCC=C)(N[*:1])C(=O)[*:2]; Phe(2-Cl) = N[C@@H](Cc1ccccc1Cl)C(=O)O; Bta = N[C@@H](Cc1csc2ccccc12)C(=O)O; αAllylPro = C=CC[C@@]1(C(=O)O)CCCN1; tBuAla = CC(C)(C)C[C@H](N)C(=O)O; Leu(ol) = CC(C)C[C@H](N)CO; Alaol = C[C@@H](CO)N*
# T1: beta-catenin (Homo sapiens (Human), UniProt P35222 2-781)
# T1 sequence: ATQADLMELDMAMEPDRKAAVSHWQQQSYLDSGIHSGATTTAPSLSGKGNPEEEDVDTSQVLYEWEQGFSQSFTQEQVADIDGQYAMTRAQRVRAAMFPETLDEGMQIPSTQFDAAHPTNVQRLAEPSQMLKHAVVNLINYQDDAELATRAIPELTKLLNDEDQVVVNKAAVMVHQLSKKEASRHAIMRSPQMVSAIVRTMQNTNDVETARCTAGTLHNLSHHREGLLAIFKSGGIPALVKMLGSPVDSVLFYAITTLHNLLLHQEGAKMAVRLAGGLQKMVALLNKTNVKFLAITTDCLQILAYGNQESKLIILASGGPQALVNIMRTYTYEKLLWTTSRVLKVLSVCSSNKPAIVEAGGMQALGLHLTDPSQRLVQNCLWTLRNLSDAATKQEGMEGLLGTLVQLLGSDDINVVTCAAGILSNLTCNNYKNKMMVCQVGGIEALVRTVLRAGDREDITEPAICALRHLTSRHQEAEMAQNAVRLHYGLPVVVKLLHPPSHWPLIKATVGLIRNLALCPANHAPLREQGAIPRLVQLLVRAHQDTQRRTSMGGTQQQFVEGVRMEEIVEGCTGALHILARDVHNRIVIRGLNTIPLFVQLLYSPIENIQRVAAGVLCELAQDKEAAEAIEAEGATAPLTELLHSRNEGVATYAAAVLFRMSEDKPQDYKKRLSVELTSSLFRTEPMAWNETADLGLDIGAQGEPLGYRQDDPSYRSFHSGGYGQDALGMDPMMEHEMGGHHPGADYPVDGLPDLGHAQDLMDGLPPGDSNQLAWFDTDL
# Target: T1, beta-catenin
# Assay: cell-based or functional assay
"DLD1 TCF c2 BrightGlo % Inhibition (TCF/LEF luciferase reporter; 0.625 uM by plate map, replicate 1) [%]","DLD1 TCF c2 BrightGlo % Inhibition (TCF/LEF luciferase reporter; 0.625 uM by plate map, replicate 2) [%]","DLD1 TCF c2 BrightGlo % Inhibition (TCF/LEF luciferase reporter; 0.625 uM by plate map, replicate 3) [%]","DLD1 TCF c2 BrightGlo % Inhibition (TCF/LEF luciferase reporter; 1.25 uM by plate map, replicate 1) [%]","DLD1 TCF c2 BrightGlo % Inhibition (TCF/LEF luciferase reporter; 1.25 uM by plate map, replicate 2) [%]","DLD1 TCF c2 BrightGlo % Inhibition (TCF/LEF luciferase reporter; 1.25 uM by plate map, replicate 3) [%]","DLD1 TCF c2 BrightGlo % Inhibition (TCF/LEF luciferase reporter; 2.5 uM by plate map, replicate 1) [%]","DLD1 TCF c2 BrightGlo % Inhibition (TCF/LEF luciferase reporter; 2.5 uM by plate map, replicate 2) [%]","DLD1 TCF c2 BrightGlo % Inhibition (TCF/LEF luciferase reporter; 2.5 uM by plate map, replicate 3) [%]","DLD1 TCF c2 BrightGlo % Inhibition (TCF/LEF luciferase reporter; 5 uM by plate map, replicate 1) [%]","DLD1 TCF c2 BrightGlo % Inhibition (TCF/LEF luciferase reporter; 5 uM by plate map, replicate 2) [%]","DLD1 TCF c2 BrightGlo % Inhibition (TCF/LEF luciferase reporter; 5 uM by plate map, replicate 3) [%]","DLD1 TCF c2 BrightGlo % Inhibition (TCF/LEF luciferase reporter; 10 uM by plate map, replicate 1) [%]","DLD1 TCF c2 BrightGlo % Inhibition (TCF/LEF luciferase reporter; 10 uM by plate map, replicate 2) [%]","DLD1 TCF c2 BrightGlo % Inhibition (TCF/LEF luciferase reporter; 10 uM by plate map, replicate 3) [%]","DLD1 TCF c2 BrightGlo % Inhibition (TCF/LEF luciferase reporter; 20 uM by plate map, replicate 1) [%]","DLD1 TCF c2 BrightGlo % Inhibition (TCF/LEF luciferase reporter; 20 uM by plate map, replicate 2) [%]","DLD1 TCF c2 BrightGlo % Inhibition (TCF/LEF luciferase reporter; 20 uM by plate map, replicate 3) [%]",Binder
9.2,7.1,11.5,0.8,2.4,5.4,4.5,7.9,15.2,17.5,23.8,31,45.6,49.8,55.3,67.2,69.3,72.3,"Ac-[αAllylPro]D[tBuAla][B5(3)]DDAAFN[PyrS2″][Phe(2-Cl)][Bta]-Alaol (staple 1-4, 4-11) [I-1081]"
20.2,13.7,15.3,16,13.8,12.3,14.6,19.8,7.9,24.9,31,24.4,42.4,42.2,38.1,51.4,56.9,51.8,"Ac-[αAllylPro]D[tBuAla][B5(4)]DDAAFN[PyrS2″][Phe(2-Cl)][Bta][Leu(ol)] (staple 1-4, 4-11) [I-1080]"
